# Measured values published in publication PMC5665528, “Characterization of the deubiquitination activity and substrate specificity of the chicken ubiquitin-specific protease 1/USP associated factor 1 complex” (PLoS ONE, 2017).
# T1: chicken ubiquitin-specific protease 1, chUSP1^GG680,681AA double mutant (full-length control) (chicken, UniProt F1NPR3 1-794, G680A | G681A)
# T1 sequence (looked up): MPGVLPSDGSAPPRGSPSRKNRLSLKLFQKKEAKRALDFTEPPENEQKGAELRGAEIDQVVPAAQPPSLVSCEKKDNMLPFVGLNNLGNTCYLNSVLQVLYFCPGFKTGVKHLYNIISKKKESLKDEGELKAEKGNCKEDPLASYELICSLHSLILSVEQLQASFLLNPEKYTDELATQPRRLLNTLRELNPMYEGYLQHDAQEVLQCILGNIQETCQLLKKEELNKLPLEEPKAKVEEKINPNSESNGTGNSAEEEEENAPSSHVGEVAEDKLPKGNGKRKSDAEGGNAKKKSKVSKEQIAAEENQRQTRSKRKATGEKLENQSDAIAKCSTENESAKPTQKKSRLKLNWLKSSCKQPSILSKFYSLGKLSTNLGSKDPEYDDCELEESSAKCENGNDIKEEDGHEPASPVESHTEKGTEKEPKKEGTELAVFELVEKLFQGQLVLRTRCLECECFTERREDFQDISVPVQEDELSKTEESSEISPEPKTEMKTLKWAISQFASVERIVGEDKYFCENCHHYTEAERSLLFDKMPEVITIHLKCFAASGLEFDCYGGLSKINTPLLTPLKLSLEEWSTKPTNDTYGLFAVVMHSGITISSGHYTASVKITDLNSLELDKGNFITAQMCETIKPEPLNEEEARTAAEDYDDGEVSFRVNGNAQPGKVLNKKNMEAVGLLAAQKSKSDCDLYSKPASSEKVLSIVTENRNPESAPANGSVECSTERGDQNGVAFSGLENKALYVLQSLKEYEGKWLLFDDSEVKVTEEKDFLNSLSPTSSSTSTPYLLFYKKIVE
# Biological target: T1, chicken ubiquitin-specific protease 1, …
# Assay: cell-based or functional assay
binder,measurement,value
"chicken USP associated factor 1, untagged (natural protein) not shown","KM of chUSP1^FL (hydrolysis of Ub-AMC) in the presence of chUAF1 against chUSP1^FL alone, fold decrease",2.87 fold
same,"deubiquitination activity (kcat/KM, hydrolysis of Ub-AMC) of chUSP1^FL/chUAF1 against chUSP1^FL alone",54 fold
same,"deubiquitination activity of 125 nM chUSP1^FL (AMC fluorescence from 100 nM Ub-AMC) three minutes after the addition of 125 nM chUAF1, against the control without chUAF1",> 2 fold
same,kcat of chUSP1^FL (hydrolysis of Ub-AMC) in the presence of chUAF1 against chUSP1^FL alone,21 fold
